According to patent US20110009361A1:

Molecular target: IL-13 receptor (IL-4Rα/IL-13Rα1) on TF-1 cells (human) (UniProt P78552)
Test: cell-based or functional assay

Chain of IL-13 receptor (IL-4Rα/IL-13Rα1) on TF-1 cells (human) (P78552 22-427, chain 1 of 2): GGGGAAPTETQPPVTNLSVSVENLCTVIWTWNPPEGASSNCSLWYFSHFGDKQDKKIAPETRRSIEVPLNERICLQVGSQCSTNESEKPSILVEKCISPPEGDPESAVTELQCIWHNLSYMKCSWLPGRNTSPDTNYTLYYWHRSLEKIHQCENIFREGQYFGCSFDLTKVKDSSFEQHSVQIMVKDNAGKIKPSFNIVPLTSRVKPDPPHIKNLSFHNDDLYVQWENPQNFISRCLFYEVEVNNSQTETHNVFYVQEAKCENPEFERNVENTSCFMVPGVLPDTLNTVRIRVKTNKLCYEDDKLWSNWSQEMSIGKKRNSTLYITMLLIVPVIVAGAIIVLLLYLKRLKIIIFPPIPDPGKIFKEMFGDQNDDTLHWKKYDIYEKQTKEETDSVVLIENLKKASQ
Chain of IL-13 receptor (IL-4Rα/IL-13Rα1) on TF-1 cells (human) (P24394 26-825, chain 2 of 2, further chain): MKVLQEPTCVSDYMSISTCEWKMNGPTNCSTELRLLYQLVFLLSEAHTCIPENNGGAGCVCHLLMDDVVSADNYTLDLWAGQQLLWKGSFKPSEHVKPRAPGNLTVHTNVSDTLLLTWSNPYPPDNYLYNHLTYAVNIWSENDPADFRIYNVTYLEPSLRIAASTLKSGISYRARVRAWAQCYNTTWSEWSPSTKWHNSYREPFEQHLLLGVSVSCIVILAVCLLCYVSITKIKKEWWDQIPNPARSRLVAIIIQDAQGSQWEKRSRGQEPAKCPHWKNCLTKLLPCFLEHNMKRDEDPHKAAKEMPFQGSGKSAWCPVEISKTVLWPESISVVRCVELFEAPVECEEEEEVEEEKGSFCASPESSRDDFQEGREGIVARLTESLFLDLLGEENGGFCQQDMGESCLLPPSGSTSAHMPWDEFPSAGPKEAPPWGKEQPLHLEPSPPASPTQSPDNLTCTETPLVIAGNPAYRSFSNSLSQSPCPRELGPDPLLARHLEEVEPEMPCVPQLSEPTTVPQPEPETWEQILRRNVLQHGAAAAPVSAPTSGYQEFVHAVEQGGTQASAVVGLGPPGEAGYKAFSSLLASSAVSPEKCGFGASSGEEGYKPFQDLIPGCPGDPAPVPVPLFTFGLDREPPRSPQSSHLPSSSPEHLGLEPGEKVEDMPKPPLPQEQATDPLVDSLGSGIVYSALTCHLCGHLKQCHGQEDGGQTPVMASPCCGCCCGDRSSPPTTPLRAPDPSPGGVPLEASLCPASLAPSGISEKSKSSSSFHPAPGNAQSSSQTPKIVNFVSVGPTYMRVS

Concentration of IL-13 required for 50% TF-1 cell proliferation (ED50, ave) [ng/mL] | Substance
2.64 | IL-13Q111 K25A (from UniProt P35225 35-146) (ligand)
22.6 | IL-13Q111 K105A (from UniProt P35225 35-146) (ligand)

Continued, substance first:

Substance | Concentration of IL-13 required for 50% TF-1 cell proliferation (ED50, ave) [ng/mL]
IL-13Q111 H102A (from UniProt P35225 35-146) (ligand) | 5.31
IL-13Q111 K97A (from UniProt P35225 35-146) (ligand) | 1.33
IL-13Q111 K104A (from UniProt P35225 35-146) (ligand) | 46.2
IL-13Q111 R108A (from UniProt P35225 35-146) (ligand) | 3.2
human IL-13 with glutamine at position 111 (IL-13Q111) (from UniProt P35225 35-146) (ligand) | 1.26
wild type human IL-13 with arginine in the 111 position (from UniProt P35225 35-146) (ligand) | 1.2
